Test results reported in US20240093162.

T1: FRAP-Tgase variant (thermostable variant of Streptomyces mobaraensis Tgase having a FRAP tetrapeptide at the N-terminal end)
T1 chain: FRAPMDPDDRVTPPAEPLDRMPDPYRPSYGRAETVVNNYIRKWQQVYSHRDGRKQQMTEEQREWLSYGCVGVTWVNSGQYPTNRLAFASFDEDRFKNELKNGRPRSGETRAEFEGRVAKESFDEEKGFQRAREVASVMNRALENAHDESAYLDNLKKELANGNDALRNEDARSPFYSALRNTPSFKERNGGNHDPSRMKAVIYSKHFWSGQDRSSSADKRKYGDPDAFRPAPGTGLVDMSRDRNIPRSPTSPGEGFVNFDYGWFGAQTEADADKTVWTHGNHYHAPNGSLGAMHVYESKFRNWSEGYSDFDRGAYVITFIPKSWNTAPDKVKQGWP

T2: Pro-Tgase variant (thermostable variant of Streptomyces mobaraensis Tgase in zymogen form)
T2 chain: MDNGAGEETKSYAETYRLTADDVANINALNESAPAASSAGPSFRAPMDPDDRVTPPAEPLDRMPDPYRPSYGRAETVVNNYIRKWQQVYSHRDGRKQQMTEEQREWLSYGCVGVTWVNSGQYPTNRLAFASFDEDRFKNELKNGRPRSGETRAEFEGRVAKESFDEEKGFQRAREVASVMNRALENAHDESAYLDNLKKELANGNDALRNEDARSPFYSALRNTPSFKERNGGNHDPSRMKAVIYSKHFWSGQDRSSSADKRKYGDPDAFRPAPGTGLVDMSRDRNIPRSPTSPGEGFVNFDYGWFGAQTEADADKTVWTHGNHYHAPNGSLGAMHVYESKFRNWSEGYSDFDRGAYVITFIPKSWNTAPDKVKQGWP

B1: Streptomyces mobaraensis transglutaminase-activating tripeptidyl aminopeptidase (SM-TAP), mature, catalytically active form (protein)
chain: QADIKDRILKIPGMKFVEEKPYQGYRYLVMTYRQPVDHRNPGKGTFEQRFTLLHKDTDRPTVFFTSGYNVSTNPSRSEPTRIVDGNQVSMEYRFFTPSRPQPADWSKLDIWQAASDQHRLYQALKPVYGKNWLATGGSKGGMTATYFRRFYPNDMNGTVAYVAPNDVNDKEDSAYDKFFQNVGDKACRTQLNSVQREALVRRDEIVARYEKWAKENGKTFKVVGSADKAYENVVLDLVWSFWQYHLQSDCASVPATKASTDELYKFIDDISGFDGYTDQGLERFTPYYYQAGTQLGAPTVKNPHLKGVLRYPGINQPRSYVPRDIPMTFRPGAMADVDRWVREDSRNMLFVYGQNDPWSGEPFRLGKGAAARHDYRFYAPGGNHGSNIAQLVADERAKATAEVLKWAGVAPQAVQKDEKAAKPLAPFDAKLDRVKNDKQSALRP
B2: Streptomyces mobaraensis transglutaminase-activating M4 metalloprotease (TAMEP), mature, catalytically active form (protein)
chain: GTGNSQHSGQVQIGTTKSGSSYQMNDTTRGGHKTYNLNHGSSGTGTLFTDSDDVWGNGTNSDPATAGVDAHYGAQLTWDYYKNVHGRNGIRGDGVGAYSRVHYGNNYVNAFWDDSCFCMTYGDGNGIPLTSIDVAAHEMTHGVTSATANLTYSGESGGLNEATSDMMATAVEFWANNPADPGDYLIGEKININGDGTPLRYMDKPSKDGASKDAWYSGLGGIDVHYSSGPANHWFYLASEGSGPKDIGGVHYDSPTSDGLPVTGVGRDNAAKIWFKALTERMQSNTDYKGARDATLWAAGELFGVNSDTYNNVANAWAAINVGPRASSGVSVTSPGDQTSIVNQAVSLQIKATGSTSGALTYSATGLPAGLSINASTGLISGTPTTTGTSNVTVTVKDSAGKTGSTSFKWTVNTTGGGSVFENTTQVAIPDAGAAVTSPIVVTRSGNGPSALKVDVNITHTYRGDLTIDLVAPNGKTWRLKNSDAWDSAADVSETYTVDASSVSANGTWKLKVQDVYSGDSGTIDKWRLTF

How the values were obtained:
[1] = target: T1, FRAP-Tgase variant (thermostable …)
[2] = target: T2, Pro-Tgase variant (thermostable variant …)

Row | Protein | proteolytic cleavage by soluble SM-TAP: UPLC-MS total area count of FRAP tetrapeptide, and N-terminal sequencing [1] | proteolytic digestion by SM-TAP immobilized on porous solid supports: UPLC-MS, colorimetric Tgase activity assay, N-terminal sequencing [1] | proteolytic digestion by co-immobilized TAMEP and SM-TAP: UPLC-MS FRAP tetrapeptide area counts, N-terminal sequencing [1] | proteolytic cleavage by soluble TAMEP: UPLC-MS total ion counts of the cleaved pro-peptide, and N-terminal sequencing [2] | proteolytic digestion by TAMEP immobilized on porous solid supports: UPLC-MS, colorimetric Tgase activity assay, N-terminal sequencing [2] | proteolytic digestion by co-immobilized TAMEP and SM-TAP: UPLC-MS FRAP tetrapeptide area counts [2]
1 | B1 | N-terminal peptide sequencing, performed as described in Example 2 above, confirmed that the FRAP tetrapeptide had been removed from the N-terminal end of the FRAP-Tgase variant (SEQ ID NO:5) resulting in a mature, catalytically active Tgase variant (SEQ ID NO:6) | Activity assay results showed that SM-TAP retained protease activity when immobilized on all the porous solid supports shown in Table 2 | Activity assay results showed that co-immobilized TAMEP and SM-TAP retained protease activity on all the porous solid supports set forth in Table 3 below |  |  | 
2 | B2 |  |  |  | N-terminal peptide sequencing, performed as described in Example 2 above, confirmed that the FRAP amino acid sequence was present on the N-terminal end of the catalytically active, not mature FRAP-Tgase variant (SEQ ID NO:5) | Activity assay results showed that TAMEP retained protease activity when immobilized on all the porous solid supports shown in Table 2 | Activity assay results showed that co-immobilized TAMEP and SM-TAP retained protease activity on all the porous solid supports set forth in Table 3 below
